Test results published in publication PMC12507517.

Biological target: RelA homodimer (UniProt Q04206)
Test: BLI
Details: EMSA: 10 mM Tris-HCl pH 7.5, 50 mM NaCl, 10% glycerol, 1% NP-40, 1 mM EDTA, 0.1 mg/mL salmon sperm DNA, room temp; BLI: 25 mM Tris-HCl pH 7.5, 150 mM NaCl …

Sequence of RelA homodimer (Q04206 whole entry): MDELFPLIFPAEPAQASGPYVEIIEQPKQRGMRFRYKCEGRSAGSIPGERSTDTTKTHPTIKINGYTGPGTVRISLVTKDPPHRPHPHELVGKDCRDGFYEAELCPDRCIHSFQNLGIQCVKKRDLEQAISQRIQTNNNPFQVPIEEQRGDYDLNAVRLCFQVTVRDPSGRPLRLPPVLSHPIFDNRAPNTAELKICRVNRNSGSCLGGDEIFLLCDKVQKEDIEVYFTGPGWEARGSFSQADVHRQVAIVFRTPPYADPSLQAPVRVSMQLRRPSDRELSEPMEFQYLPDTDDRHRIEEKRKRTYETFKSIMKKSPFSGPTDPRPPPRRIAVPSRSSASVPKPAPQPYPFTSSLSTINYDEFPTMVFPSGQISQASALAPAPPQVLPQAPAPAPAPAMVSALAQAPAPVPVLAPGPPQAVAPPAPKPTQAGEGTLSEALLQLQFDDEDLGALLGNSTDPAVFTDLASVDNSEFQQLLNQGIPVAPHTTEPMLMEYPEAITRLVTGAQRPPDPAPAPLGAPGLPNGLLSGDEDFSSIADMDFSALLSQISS

Row | Substance | Kd
1 | IFN-b1 kB (strong) | 0.027 µM
2 | STX11 kB (weak) | 0.25 µM
